This note sets out measurements from patent publication EP4450093A1, “CLEAVABLE IMMUNE CELL ENGAGERS” (Synaffix B.V., priority 2023, dated 2024).

In this assay the target is IL-15 receptor on the IL-15 cells of the IL-15 bioassay (Promega, cat.# JA2015) (mouse cell line). The experiment in a line: cell-based or functional assay.

In the case of “trastuzumab (Herceptin), non-modified antibody”, the Fold induction, IL-15 bioassay was 0.9 fold.
